Tested on: MCF7 cells
Assay: Proliferation of MCF7 cells after peptide treatment
Format: cell-based
Settings: MCF7 cells (FIG. 5)

B1: HB-EGF: peptide mimetic HB-EGF (R&D Systems 259-HE-050) (protein, UniProt Q99075 63-148, looked up)
Heparin-binding EGF-like …: DLQEADLDLLRVTLSSKPQALATPNKEEHGKRKKKGKGLGKKRDPCLRKYKDFCIHGECKYVKELRAPSCICHPGYHGERCHGLSL
  proliferation after peptide treatment: does not affect proliferation
